Results from patent US9217139B2, “Extracellularly secreted nuclease” (JAPAN AGENCY FOR MARINE-EARTH SCIENCE AND TECHNOLOGY, priority 2010, dated 2015).

Key:
Type in all cases: biochemical
[1] = test system: Salmon sperm DNA; test: standard specific activity measurement method (increase of absorbancy at 260 nm); settings: 37 degrees Celsius; for specific activity: purified enzyme, 30 minutes, 20 mM Tris/HCl pH 8.5, 1 mM MgCl2, 1 mM CaCl2
Description: The specific activity of NucS was measured at 37 degrees Celsius in 20 mM of Tris/HCl at pH 8.5 that contains 1 mM of MgCl2 and 1 mM of CaCl2 (a measurement method under the condition described here is also referred to as a standard specific activity measurement method, hereinafter); the specific activity was 3.6×10^6 U/mg-protein, which was a very high level of specific activity. In this case, 1 U represents an amount of enzymes necessary to increase the absorbancy of 260 nm by one for 30 minutes when the enzymes works on the following as substrate: Salmon sperm DNA 1 mg/mL (manufactured by Invitrogen; Cat no. 15632-011). As a reference, as for NucS, when the specific activity of Benzonase (Registered Trademark), which was a commercially available nucleolytic enzyme that had the highest specific activity among those listed in a brochure, was measured under the conditions described in the brochure (37 degrees Celsius) with the use of the same substrate; the specific activity was 9.4×10^5 U/mg-protein. As a result, it became clear that the specific activity of NucS is about 3.8 times higher than that of Benzonase.
The specific activity of NucL was 5.6×10^4 U/mg-protein at 37 degrees Celsius in 20 mM of Tris/HCl at pH 8.5 that contains 1 mM of MgCl2 and 1 mM of CaCl2. The isoelectric point was measured by using Novex (Registered Trademark) IEF pH-3-10 gel (manufactured by Invitrogen); and then pl was 7.0. Then, it was determined that a N-terminal amino acid sequence of the purified enzyme was DSVRIHDIQGTTR. The sequence matched 12 out of 13 amino acids of putative protein (putative secreted hydrolase) coded on a genome of Streptomyces scabiei 87.22, and of putative protein (large secreted protein) coded on a genome of S. avermitilis MA-4680.

[2] = effects of temperature on enzyme activity; settings: 15 minutes, 20 mM Tris/HCl pH 8.5, 1 mM MgCl2, 1 mM CaCl2
Description: Under each temperature condition, the nucleic-acid degradation activity was measured for 15 minutes in 20 mM of Tris/HCl at pH 8.5 that contained 1 mM of MgCl2 and 1 mM of CaCl2.

[3] = test system: Deoxyribonucleic acid sodium salt from salmon testes; test: effects of divalent metal salt on enzyme activity; settings: 20 mM Tris/HCl pH 8.5, 1 mM CaCl2, 25 degrees Celsius
Description: Effects of divalent metal salt on NucS and NucL were examined. NucS or NucL was added to a reaction solution that was obtained by adding, as substrate, Deoxyribonucleic acid sodium salt from salmon testes 0.4 mg/mL (manufactured by Sigma-Aldrich; Cat no. D1626-1G) into 20 mM of Tris/HCl at pH 8.5 that contained 1 mM of CaCl2 and 0 to 20 mM of MgCl2 or MnCl2; and the mixture was incubated in ice for 30 minutes. Then, the nucleic-acid degradation activity was measured at 25 degrees Celsius for 15 minutes. […] Incidentally, in the present test, in order to enhance the stability of the enzymes, 1 mM of CaCl2 was added to all the reaction solutions.

[4] = test system: linear double-stranded DNA (pUC18 plasmid cut by BamHI, SacI, SmaI); test: degradation pattern of linear double-stranded DNA; settings: for degradation of linear double-stranded DNA regardless of the structure of DNA strand ends: 5'-protruding, 3'-protruding and flush ends; for efficiency of degradation of linear double-stranded DNA compared with circular DNA: comparison of FIGS. 12, 16, 17
From the text: With the use of the standard specific activity measurement method, as well as of a substrate obtained by making circular DNA (pUC18 plasmid) linear by using restriction nucleases BamHI (which generates a 5′-protruding end), SacI (which generates a 3′-protruding end), and SmaI (which generates a flush end), a degradation reaction took place with the use of NucS and NucL (referring to FIGS. 16 and 17).
Given the above results, it is presumed that NucL has a reaction style called an endo-exo type.

[5] = test system: Deoxyribonucleic acid sodium salt from salmon testes; test: effects of phosphate on enzyme activity
Description: Effects of phosphate on NucS and NucL were examined. In 0 to 40 mM of potassium phosphate buffer at pH 8.5 that contained 1 mM of MgCl2 and 1 mM of CaCl2, the nucleic-acid degradation activity was measured at 25 degrees Celsius for 15 minutes by using, as substrate, Deoxyribonucleic acid sodium salt from salmon testes 0.4 mg/mL (manufactured by Sigma-Aldrich; Cat no. D1626-1G). […] Meanwhile, compared with NucS, NucL was excellent in resistance to phosphate. NucL could maintain 50 percent of activity even in the presence of 10 mM of potassium phosphate (referring to FIG. 11).

Row | Molecule | specific activity of NucS relative to Benzonase ([1]; same substrate) | specific activity [1] | optimum reaction temperature [2] | activity in the presence of 1 to 2 mM of MnCl2 compared with MgCl2 [3] | requirement of divalent metal salt for activation [3] | degradation of linear double-stranded DNA regardless of the structure of DNA strand ends [4] | efficiency of degradation of linear double-stranded DNA compared with circular DNA [4] | phosphate concentration that made the enzyme inactive ([5]; potassium phosphate buffer pH 8.5, 1 mM MgCl2, 1 mM CaCl2, 25 degrees Celsius) [mM] | reaction style presumed from linear DNA degradation [4] | activity maintained in the presence of phosphate ([5]; 10 mM of potassium phosphate, pH 8.5, 25 degrees Celsius) [%]
1 | NucS: low-molecular-weight nucleolytic enzyme, about 17 to 21 kDa, secreted by Streptomyces sp. MBE174; SEQ ID NO. 3 (protein, Streptmyces sp. MBE174) MPKLYARRRFAVLAALTGLIASAGLFHGPAASAALPTPVSAATARGYLASLKVAPENRTGYKRDLFPHWITQSGTCNTRETVLKRDGTNVVTDAACAATSGSWYSPFDGATWTAASDVDIDHLVPLAEAWDSGASAWTTAQRQAFANDLTRPQLLAVTDTVNQSKGDKDPAEWMPPRAAYHCTYVRAWVQVKYYYGLSVDTAEKTALTNRLAGC | about 3.8 times | 3.6×10^6 U/mg-protein | around 55 degrees Celsius | substantially the same level of activity | required divalent metal salt for activation | can degrade | at the same level of efficiency | ≥ 0.5 | – | –
2 | NucL: nucleolytic enzyme of about 66.5 kDa secreted by Streptomyces sp. MBE174; SEQ ID NO. 4 (protein, Streptmyces sp. MBE174) MASQSVTRLAALTVAATCSAASVVVLGPPAHADSVRIHDIQGTTRISPYAGRQVADVPGVVTGVRDHGSSRGFWFQDPRPDDDPATSEGVFVFTGSAPGVEAGDAVTVSGTVSEFVPGGTASGNQSLTEITRPTVTVVSRGNPVPDPVVVSARSVPHAYAPAGDAAANGSVNALPLRPDRYALDYYESLEGMNVQVADARVVGATDPYTELWVTVKPGENASPRGGTVYGSRDAQNTGRLQIQTLGVPAGFPAADVGDTLAGATTGPLDYNQFGGYTLVARSLGTLTAGGLARETTREQHRDELSVATYNVENLDPSDGTFAAHAEAIVRNLRSPDIVSLEEIQDDNGATDDGTVTAGVTVGKLIDAVVAAGGPRYDWRSVDPVDKADGGQPGGNIRQVFLFDPRRVSFADRPGGDAVTATGVVKVRGKAALTHSPGRVDPANPAWLNSRKPLAGEFSFRGRTVFVIANHFASKGGDQGLTSQYQPPARSSETQRHLQATAVNTFVKQILAVQKNADVIALGDINDFEFSGTTERLEAGGALWSAVRSLPPGERYSYVYQGNSQVLDQILVSPSIRRGHLSYDSVHINAEFHDQISDHDPQVLRYRP | – | 5.6×10^4 U/mg-protein | around 45 degrees Celsius | – | required divalent metal salt for activation | can degrade | more efficiently | – | endo-exo type | 50
